Data taken from article PMC4503318 (Chemistry & biology, 2015).
Like-named read-outs stand apart in the source and are kept apart here.

B1: Pf-like human LysRS (human LysRS 70-584 with P300T, Q321V, T337S) (enzyme)
chain: not shown
B2: Plasmodium falciparum lysyl-tRNA synthetase (PfLysRS), residues 77-583 (enzyme)
chain: not shown

Tests used:
[1] = target: the molecule itself; test: crystal structure
[2] = target: the molecule itself; test: crystal structure; remark: listed apart in the source

| Protein | binding result [1] | binding result [2] |
| --- | --- | --- |
| B1 | binds | – |
| B2 | – | binds |
